Assay results published in FireProtDB (doi:10.1002/prot.340090203).

Conditions: Escherichia coli (strain K12), reversible: yes, whole UniProt chain shown; for unfolding free energy: pH 7, 25 °C, GdnHCl, CD, Potassium phosphate 10 mM
[1] = pH 9, Thermal, DSC, Sodium tetraborate 1 mM

B1: Tryptophan synthase alpha chain wild type, P0A877 (protein)
chain: MERYESLFAQLKERKEGAFVPFVTLGDPGIEQSLKIIDTLIEAGADALELGIPFSDPLADGPTIQNATLRAFAAGVTPAQCFEMLALIRQKHPTIPIGLLMYANLVFNKGIDEFYAQCEKVGVDSVLVADVPVEESAPFRQAALRHNVAPIFICPPNADDDLLRQIASYGRGYTYLLSRAGVTGAENRAALPLNHLVAKLKEYNAAPPLQGFGISAPDQVKAAIDAGAAGAISGSAIVKIIEQHINEPEKMLAALKVFVQPMKAATRS
unfolding free energy: 8.8 kcal/mol
unfolding free energy (transition: 3): 4.6 kcal/mol
Tm [1]: 54.1 °C
heat capacity change of unfolding [1]: 4.6 kcal/mol/K
unfolding enthalpy (calorimetric) [1]: 120 kcal/mol
